Patent US20230321261A1, “AXL-SPECIFIC ANTIBODY-DRUG CONJUGATES FOR CANCER TREATMENT” (GENMAB A/S, priority 2016, published 2023)
Residue numbers refer to the chain shown, from its start. Numbers in names are those of the source.

Columns and labels:
[1] = target: T1, AXLECDHis (extracellular domain of human AXL) (Homo sapiens, UniProt P30530); test: Binding affinity by Bio-Layer Interferometry (ForteBio OctetRED384); settings: 1:1 model, 30° C.
T1 construct: the extracellular domain (ECD) of human AXL (aa 1-447) with a C-terminal His tag (AXLECDHis); His tag (C); made in house; host or cells: HEK-293F

[2] = target: T2, full length human AXL (Homo sapiens, UniProt P30530); test: Flow cytometry binding to transfected HEK293T cells; settings: at least 3 experiments
T2 construct: expression constructs for full length human AXL; expressed in transfected cells; host or cells: HEK293T
Protocol: HEK293T cells were transiently transfected with expression constructs for full length human AXL, human AXL with a cynomolgus monkey extracellular domain (ECD) or human AXL with a mouse ECD (see Example 1). Binding of HuMab-AXL antibodies to these cells was evaluated by flow cytometry. Transfected HEK293 cells were incubated with serial dilutions of AXL-antibodies (final concentration range 0.0024-10 µg/mL) for 30 minutes at 4° C. […] Next, cells were washed twice in PBS/0.1% BSA/0.02% azide, resuspended in 120 µL PBS/0.1% BSA/0.02% azide and analyzed on a FACS Cantoll (BD Biosciences).
(§1) Binding curves were analyzed using non-linear regression (sigmoidal dose-response with variable slope) using GraphPad Prism V5.04 software (GraphPad Software, San Diego, CA, USA).

[3] = target: T3, human AXL with a cynomolgus monkey extracellular domain (ECD) (Homo sapiens, UniProt P30530, P441T/S191N/S285L/T105A/T112A/T125N/T443A); test: as above; settings: at least 3 experiments
T3 construct: aa 1-447); human AXL transmembrane and intracellular part (the remainder of human AXL after the ECD; expressed in transfected cells; host or cells: HEK293T

[4] = target: T4, AXL on A431 cells (Homo sapiens, UniProt P30530); test: Antibody binding to A431 cells with or without Gas6 pre-incubation; settings: for Antibody binding to A431 cells: EC50 in presence of Gas6 (µg/mL) mean (s.d.) / Antibody binding to A431 cells: Maximal binding in presence of Gas6 (% of binding in absence of Gas6) mean (s.d.): pre-incubation with 10 µg/mL Gas6; for Antibody binding to A431 cells: EC50 w/o Gas6 (µg/mL) mean (s.d.): without Gas6 pre-incubation
T4 construct: AXL-positive A431 cells were incubated; endogenous in cells; host or cells: A431

[5] = target: T5, Gas6 binding to AXL on A431 cells (Homo sapiens, UniProt P30530); test: Gas6 binding to A431 cells pre-incubated with AXL antibodies; settings: pre-incubation with 10 µg/mL antibody; control antibody b12
T5 construct: endogenous in cells; host or cells: A431
Protocol: Alternatively, A431 cells were pre-incubated with 10 µg/mL AXL antibodies (15 minutes, 4° C.) to assess if the AXL ligand Gas6 could still bind in presence of AXL antibodies. […] After washing three times in PBS/0.1% BSA/0.02% azide, cells were incubated with mouse anti-Gas6 IgG2a (R&D Systems; cat no. MAB885) at 4° C. for 30 min. After washing three times in PBS/0.1% BSA/0.02% azide, cells were incubated with FITC-labelled goat anti-mouse IgG (Dako, Heverlee, Belgium; cat no. F049702) at 4° C. for 30 min in the dark. Next, cells were washed twice in PBS/0.1% BSA/0.02% azide, resuspended in 120 µL PBS/0.1% BSA/0.02% azide and analyzed on a FACS Cantoll (BD Biosciences).
as §1
Therefore, binding of Gas6 to A431 cells that had been pre-incubated with 10 µg/mL AXL antibodies was tested as described in Example 2.

[6] = target: T6, human-mouse chimeric AXL mutants (Homo sapiens, UniProt P30530, A151P/A183V/D170T/D266N/G187S/H193Q/P184T/P188S/R148K/R190H/T149A/T182P/V194T); test: AXL domain specificity using human-mouse AXL chimeric molecules (flow cytometry); type: binding; settings: 1 µg/mL antibody
T6 construct: constructs for expression of various full-length AXL variants were generated; expressed in transfected cells; host or cells: HEK293F

[7] = test system: A431 cells; test: Antibody-dependent cell-mediated cytotoxicity (51Cr release); type: cell-based, human; settings: concentrations up to 10 µg/mL; PBMC effector to target ratio 100:1
Protocol: The ability of anti-AXL antibodies to induce ADCC of A431 epidermoid carcinoma cells was determined as explained below. As effector cells, peripheral blood mononuclear cells from healthy volunteers (UMC Utrecht, The Netherlands) were used.
A431 cells were collected (5×10^6 cells) in culture medium (RPMI 1640 culture medium supplemented with 10% fetal calf serum (FSC)), to which 100 µCi ^51Cr (Chromium-51; Amersham Biosciences Europe GmbH, Roosendaal, The Netherlands) had been added, and the mixture was incubated in a 37° C. water bath for 1 hour (hr) while shaking. After washing of the cells (twice in PBS, 1200 rpm, 5 min), the cells were resuspended in RPMI1640/10% FSC and counted by trypan blue exclusion. […]
Peripheral blood mononuclear cells (healthy volunteers, UMC Utrecht, Utrecht, The Netherlands) were isolated from 45 mL of freshly drawn heparin blood by Ficoll (Bio Whittaker; lymphocyte separation medium, cat 17-829E) according to the manufacturer’s instructions. After resuspension of cells in RPMI1640/10% FSC, cells were counted by trypan blue exclusion and diluted to a density of 1×10^7 cells/mL.
50 µl of ^51Cr-labeled targets cells were pipetted into 96-well plates, and 50 µl of antibody were added, diluted in RPMI1640/10% FSC (3-fold dilutions at final concentrations range 0.01-10 µg/mL). […] The percentage specific lysis was calculated as follows: […]

[8] = target: T7, human AXL transiently expressed by HEK-293F cells (Homo sapiens, UniProt P30530); test: Homogeneous antigen specific screening assay (FMAT); type: binding
T7 construct: TH1021-AXL (HEK-293F cells transiently expressing full length human AXL; produced as described above); expressed in transfected cells; host or cells: HEK-293F

[9] = test system: PAXF1657 tumors; test: PAXF1657 pancreas cancer PDX model; type: in vivo, NMRI nu/nu mice; settings: mouse, in vivo
[10] = target: T8, human-mouse chimeric AXL mutants (Homo sapiens, UniProt P30530, A349V/A358V/A407T/A411S/A425P/A431G/C405S/D266N/F350L/G397R/H352R/I340V/K439S/P444R/Q372R/Q387R/Q394R/Q436H/R386T/S398P/S400A/S442P/T343M/T443P/V434L); test: AXL domain specificity using human-mouse AXL chimeric molecules (flow cytometry); type: binding; settings: 1 µg/mL antibody
T8 construct: constructs for expression of various full-length AXL variants were generated; expressed in transfected cells; host or cells: HEK293F

[11] = target: T9, human-mouse chimeric AXL mutants (Homo sapiens, UniProt P30530, A273L/A287V/A310S/E275K/E281D/G297E/H300L/L233V/M269V/N230H/P276S/P329T/Q227R/Q272W/R229H/S285L/S298K/S319P/T259N/T312S/V309I); test: as above; type: binding; settings: 1 µg/mL antibody
T9 construct: constructs for expression of various full-length AXL variants were generated; expressed in transfected cells; host or cells: HEK293F

B1: IgG1-AXL-148: AXL-specific human IgG1,κ antibody, VH SEQ ID NO:5, VL SEQ ID NO:6, Ig2 domain binding (antibody, listed as Homo sapiens, V domains shown)
VH: EVQLLESGGGLVQPGGSLRLSCAASGFTFSSYAMTWVRQAPGKGLEWVSAISISGGSTFYADSVKGRFTISRDNSKNTLYLQMNSLRAEDTAVYYCRGYSGYVYDAFDFWGQGTMVTVSS
VL: DIQMTQSPSSLSASVGDRVTITCRASQGISNWLAWYQQKPEKAPKSLIYAASSLQSGVPSRFSGSGSGTDFTLTISSLQPEDFATYYCQQYNSYPLTFGGGTKVEIK
Binding affinity (OCTET) Kdis [1]: 0.0044 s⁻¹ | Binding affinity (OCTET) Kon [1]: 230000 M⁻¹ s⁻¹ | Binding EC50 (µg/mL) human AXL Average (s.d.) [2]: 0.094 (0.059) µg/mL | Binding EC50 (µg/mL) cynomolgus AXL Average (s.d.) [3]: 0.152 (0.080) µg/mL | Antibody binding to A431 cells: EC50 in presence of Gas6 (µg/mL) mean (s.d.) [4]: 0.20 (0.30) µg/mL | Antibody binding to A431 cells: Maximal binding in presence of Gas6 (% of binding in absence of Gas6) mean (s.d.) [4]: 93 (5) % | Antibody binding to A431 cells: EC50 w/o Gas6 (µg/mL) mean (s.d.) [4]: 0.11 (0.13) µg/mL | Gas6 binding to A431 cells: Maximal binding in presence of AXL antibodies (% of binding in presence of control antibody) mean (s.d.) [5]: 106 (7) % | binding to hsAXL-mmIg2 [6]: strongly reduced binding | ADCC in A431 cells (percentage specific lysis) [7]: did not induce significant ADCC | Maximal binding (Arbitrary units) [8]: 3499 Arbitrary units | anti-tumor activity in the PAXF1657 model (FIG. 10B, 10C) [9]: did not result in anti-tumor activity

B2: IgG1-AXL-726: AXL-specific human IgG1,κ antibody, VH SEQ ID NO:31, VL SEQ ID NO:33, FN2 domain binding (antibody, listed as Homo sapiens, V domains shown)
VH: QVQLQQWGAGLLKPSETLSLTCAIDGGSFSGYYWSWIRQPPGKGLEWIGEISHSGRTNYNPSLKSRVTISIDTSKNQFSLKLSSVAAADTAVYYCARFITMIRGAIITHFDYWGQGALVTVSS
VL: B1 VL with N31S, N92H, L96Y, G100Q, V104L
Binding affinity (OCTET) Kdis [1]: 0.00013 s⁻¹ | Binding affinity (OCTET) Kon [1]: 240000 M⁻¹ s⁻¹ | Binding EC50 (µg/mL) human AXL Average (s.d.) [2]: 0.288 (0.206) µg/mL | Binding EC50 (µg/mL) cynomolgus AXL Average (s.d.) [3]: 0.349 (0.160) µg/mL | Antibody binding to A431 cells: EC50 in presence of Gas6 (µg/mL) mean (s.d.) [4]: 0.55 (0.69) µg/mL | Antibody binding to A431 cells: Maximal binding in presence of Gas6 (% of binding in absence of Gas6) mean (s.d.) [4]: 97 (10) % | Antibody binding to A431 cells: EC50 w/o Gas6 (µg/mL) mean (s.d.) [4]: 0.32 (0.35) µg/mL | Gas6 binding to A431 cells: Maximal binding in presence of AXL antibodies (% of binding in presence of control antibody) mean (s.d.) [5]: 98 (10) % | binding to hsAXL-mmFN2 [10]: lost | Maximal binding (Arbitrary units) [8]: 3154 Arbitrary units

B3: IgG1-AXL-726-M101L: point mutant of IgG1-AXL-726, VH SEQ ID NO:32, VL SEQ ID NO:33 (antibody, listed as Homo sapiens, V domains shown)
VH: B2 VH with M101L
VL: B1 VL with N31S, N92H, L96Y, G100Q, V104L
Binding affinity (OCTET) Kdis [1]: 6.9e-05 s⁻¹ | Binding EC50 (µg/mL) human AXL Average (s.d.) [2]: 0.184 (0.117) µg/mL | Binding EC50 (µg/mL) cynomolgus AXL Average (s.d.) [3]: 0.250 (0.066) µg/mL | ADCC in A431 cells (percentage specific lysis) [7]: did not induce significant ADCC

B4: IgG1-AXL-733: AXL-specific human IgG1,κ antibody, VH SEQ ID NO:34, VL SEQ ID NO:35, FN1 domain binding (antibody, listed as Homo sapiens, V domains shown)
VH: QVQLVESGGGVVQPGRSLRLSCAASGFSFSTYAMHWVRQAPGKGLEWVAVISYDGDNKYSADSVKGRFTISRDNSKNTLYLQMNSLRAEDTAVYYCARGRKLGIDAFDIWGQGTMVTVSS
VL: AIQLTQSPSSLSASVGDRVTITCRASQGISSALAWYQQKPGKAPKLLIYDASSLESGVPSRFSGSGSGTDFTLTISGLQPEDFATYYCQQFNSYPFTFGPGTKVDIK
Binding affinity (OCTET) Kdis [1]: 0.0097 s⁻¹ | Binding affinity (OCTET) Kon [1]: 160000 M⁻¹ s⁻¹ | Binding EC50 (µg/mL) human AXL Average (s.d.) [2]: 0.176 (0.094) µg/mL | Binding EC50 (µg/mL) cynomolgus AXL Average (s.d.) [3]: 0.254 (0.114) µg/mL | Antibody binding to A431 cells: EC50 in presence of Gas6 (µg/mL) mean (s.d.) [4]: 0.62 (0.23) µg/mL | Antibody binding to A431 cells: Maximal binding in presence of Gas6 (% of binding in absence of Gas6) mean (s.d.) [4]: 93 (5) % | Antibody binding to A431 cells: EC50 w/o Gas6 (µg/mL) mean (s.d.) [4]: 0.49 (0.51) µg/mL | Gas6 binding to A431 cells: Maximal binding in presence of AXL antibodies (% of binding in presence of control antibody) mean (s.d.) [5]: 96 (5) % | binding to hsAXL-mmFN1 [11]: reduced binding
